From the Human Domainome abundance scans (Beltran et al. 2025)
± gives the uncertainty stated by the source.

B1: POU domain, class 4, transcription factor 2, residues 256 to 327; numbered along this chain, Q12837 (parent)
chain: RDLEAFAERFKQRRIKLGVTQADVGSALANLKIPGVGSLSQSTICRFESLTLSHNNMIALKPILQAWLEEAE

Variants of: B1
Experiment: abundance fitness (aPCA) (normalised: wild type 0, dead -1); higher = more abundant; growth selection in yeast, the domain comes from the species named
Settings: Homo sapiens

Variant	abundance fitness
RDLEAFAERFKQRRIKLGVTQADVGSALANLKIPGVGSSSQSTICRFESLTLSHNNMIALKPILQAWLEEAE	-0.304 ± 0.062
RDLEAFAERFKQRRIKLGVTQADVGSALANLKIPGVGSPSQSTICRFESLTLSHNNMIALKPILQAWLEEAE	-0.258 ± 0.075
RDLEAFAERFKQRRIKLGVTQADVGSALANLKIPGVGSWSQSTICRFESLTLSHNNMIALKPILQAWLEEAE	-0.387 ± 0.12
RDLEAFAERFKQRRIKLGVTQADVGSALANLKIPGVGSNSQSTICRFESLTLSHNNMIALKPILQAWLEEAE	-0.615 ± 0.35
RDLEAFAERFKQRRIKLGVTQADVGSALANLKIPGVGSQSQSTICRFESLTLSHNNMIALKPILQAWLEEAE	-0.732 ± 0.17
RDLEAFAERFKQRRIKLGVTQADVGSALANLKIPGVGSGSQSTICRFESLTLSHNNMIALKPILQAWLEEAE	-0.499 ± 0.039
RDLEAFAERFKQRRIKLGVTQADVGSALANLKIPGVGSTSQSTICRFESLTLSHNNMIALKPILQAWLEEAE	-0.204 ± 0.096
RDLEAFAERFKQRRIKLGVTQADVGSALANLKIPGVGSYSQSTICRFESLTLSHNNMIALKPILQAWLEEAE	-0.53 ± 0.16
RDLEAFAERFKQRRIKLGVTQADVGSALANLKIPGVGSCSQSTICRFESLTLSHNNMIALKPILQAWLEEAE	-0.168 ± 0.12
RDLEAFAERFKQRRIKLGVTQADVGSALANLKIPGVGSRSQSTICRFESLTLSHNNMIALKPILQAWLEEAE	-0.718 ± 0.1
RDLEAFAERFKQRRIKLGVTQADVGSALANLKIPGVGSMSQSTICRFESLTLSHNNMIALKPILQAWLEEAE	-0.01 ± 0.087
RDLEAFAERFKQRRIKLGVTQADVGSALANLKIPGVGSDSQSTICRFESLTLSHNNMIALKPILQAWLEEAE	-0.413 ± 0.46
RDLEAFAERFKQRRIKLGVTQADVGSALANLKIPGVGSKSQSTICRFESLTLSHNNMIALKPILQAWLEEAE	-0.141 ± 0.16
RDLEAFAERFKQRRIKLGVTQADVGSALANLKIPGVGSFSQSTICRFESLTLSHNNMIALKPILQAWLEEAE	-0.181 ± 0.14
RDLEAFAERFKQRRIKLGVTQADVGSALANLKIPGVGTLSQSTICRFESLTLSHNNMIALKPILQAWLEEAE	-0.083 ± 0.082
RDLEAFAERFKQRRIKLGVTQADVGSALANLKIPGVGDLSQSTICRFESLTLSHNNMIALKPILQAWLEEAE	-0.277 ± 0.12
RDLEAFAERFKQRRIKLGVTQADVGSALANLKIPGVGRLSQSTICRFESLTLSHNNMIALKPILQAWLEEAE	-0.022 ± 0.045
RDLEAFAERFKQRRIKLGVTQADVGSALANLKIPGVGLLSQSTICRFESLTLSHNNMIALKPILQAWLEEAE	-0.045 ± 0.055
RDLEAFAERFKQRRIKLGVTQADVGSALANLKIPGVGNLSQSTICRFESLTLSHNNMIALKPILQAWLEEAE	0.133 ± 0.11

Variant	abundance fitness
RDLEAFAERFKQRRIKLGVTQADVGSALANLKIPGVGALSQSTICRFESLTLSHNNMIALKPILQAWLEEAE	-0.013 ± 0.046
RDLEAFAERFKQRRIKLGVTQADVGSALANLKIPGVGVLSQSTICRFESLTLSHNNMIALKPILQAWLEEAE	-0.159 ± 0.069
RDLEAFAERFKQRRIKLGVTQADVGSALANLKIPGVGILSQSTICRFESLTLSHNNMIALKPILQAWLEEAE	-0.146 ± 0.14
RDLEAFAERFKQRRIKLGVTQADVGSALANLKIPGVGHLSQSTICRFESLTLSHNNMIALKPILQAWLEEAE	0.104 ± 0.12
RDLEAFAERFKQRRIKLGVTQADVGSALANLKIPGVGKLSQSTICRFESLTLSHNNMIALKPILQAWLEEAE	-0.127 ± 0.082
RDLEAFAERFKQRRIKLGVTQADVGSALANLKIPGVGCLSQSTICRFESLTLSHNNMIALKPILQAWLEEAE	-0.092 ± 0.077
RDLEAFAERFKQRRIKLGVTQADVGSALANLKIPGVGQLSQSTICRFESLTLSHNNMIALKPILQAWLEEAE	-0.051 ± 0.12
RDLEAFAERFKQRRIKLGVTQADVGSALANLKIPGVGGLSQSTICRFESLTLSHNNMIALKPILQAWLEEAE	-0.091 ± 0.049
RDLEAFAERFKQRRIKLGVTQADVGSALANLKIPGVGELSQSTICRFESLTLSHNNMIALKPILQAWLEEAE	-0.127 ± 0.13
RDLEAFAERFKQRRIKLGVTQADVGSALANLKIPGVGWLSQSTICRFESLTLSHNNMIALKPILQAWLEEAE	-0.209 ± 0.093
RDLEAFAERFKQRRIKLGVTQADVGSALANLKIPGVGYLSQSTICRFESLTLSHNNMIALKPILQAWLEEAE	0.026 ± 0.032
RDLEAFAERFKQRRIKLGVTQADVGSALANLKIPGVGSLAQSTICRFESLTLSHNNMIALKPILQAWLEEAE	-0.203 ± 0.056
RDLEAFAERFKQRRIKLGVTQADVGSALANLKIPGVGSLDQSTICRFESLTLSHNNMIALKPILQAWLEEAE	0.016 ± 0.3
RDLEAFAERFKQRRIKLGVTQADVGSALANLKIPGVGSLCQSTICRFESLTLSHNNMIALKPILQAWLEEAE	-0.131 ± 0.084
RDLEAFAERFKQRRIKLGVTQADVGSALANLKIPGVTSLSQSTICRFESLTLSHNNMIALKPILQAWLEEAE	-0.162 ± 0.08
RDLEAFAERFKQRRIKLGVTQADVGSALANLKIPGVSSLSQSTICRFESLTLSHNNMIALKPILQAWLEEAE	0.028 ± 0.055
RDLEAFAERFKQRRIKLGVTQADVGSALANLKIPGVVSLSQSTICRFESLTLSHNNMIALKPILQAWLEEAE	-0.269 ± 0.067
RDLEAFAERFKQRRIKLGVTQADVGSALANLKIPGVYSLSQSTICRFESLTLSHNNMIALKPILQAWLEEAE	-0.418 ± 0.23
RDLEAFAERFKQRRIKLGVTQADVGSALANLKIPGVWSLSQSTICRFESLTLSHNNMIALKPILQAWLEEAE	-0.68 ± 0.14
